Laboratory results from publication PMC10881398, “O-glycosylation of the transcription factor SPATULA promotes style development in Arabidopsis” (Nature Plants, 2024).
One block for each binder: values may come before it.

What was measured:
6xHis-SPT (SPATULA) = target: T1, 6xHis-SPT (SPATULA) (Arabidopsis thaliana, UniProt Q9FUA4 1-373); assay: EMSA; legend: binding abolished; text: strongly abolished; EMSA: 150 ng DNA, '1x' buffer as printed 250 mM Tris-HCl pH 8.0, 500 mM NaCl, 25% glycerol, 10 mM DTT; on ice 20 min; 5% native acrylamide gel, 1x TBE, EB stain; conditions: protein: recombinant; tags: 6xHis N-terminal (pRSFDuet); chain copies: 2; label: none (EB stain); blunt
T1 sequence: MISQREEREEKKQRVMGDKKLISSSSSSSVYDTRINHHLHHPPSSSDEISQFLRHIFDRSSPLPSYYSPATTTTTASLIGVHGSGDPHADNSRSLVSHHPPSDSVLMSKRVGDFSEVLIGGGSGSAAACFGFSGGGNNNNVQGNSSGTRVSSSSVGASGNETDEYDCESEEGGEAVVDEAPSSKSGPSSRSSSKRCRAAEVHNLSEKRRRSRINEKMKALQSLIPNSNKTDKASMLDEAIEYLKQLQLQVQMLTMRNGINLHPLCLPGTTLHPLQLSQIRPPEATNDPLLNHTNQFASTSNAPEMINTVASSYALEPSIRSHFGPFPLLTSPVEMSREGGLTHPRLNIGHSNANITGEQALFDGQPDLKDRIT

[1] = target: the molecule itself; assay: FRET or BRET; FRET–FLIM in nuclei of co-infiltrated N. benthamiana leaves; donor SPT–EGFP, acceptor RFP fusions; efficiency E = 1 − τDA/τD with SPT–EGFP;RFP–NLS as the donor-only reference; with or without co-expressed SEC–3xHA or SPY–3xHA
HEC1–RFP (35S::HEC1–RFP) = target: T2, HEC1–RFP (35S::HEC1–RFP) (Arabidopsis thaliana, UniProt Q9FHA7 1-241); assay: as above; conditions: partners not purified
T2 construct: HECATE 1 (HEC1), bHLH transcription factor, Arabidopsis thaliana; the cloning of this construct is not described; the methods describe the FRET–FLIM constructs of SPT and IND only; also called HECATE 1; source: N. benthamiana leaves, Agrobacterium-infiltrated, in nuclei of leaf cells
T2 sequence (looked up): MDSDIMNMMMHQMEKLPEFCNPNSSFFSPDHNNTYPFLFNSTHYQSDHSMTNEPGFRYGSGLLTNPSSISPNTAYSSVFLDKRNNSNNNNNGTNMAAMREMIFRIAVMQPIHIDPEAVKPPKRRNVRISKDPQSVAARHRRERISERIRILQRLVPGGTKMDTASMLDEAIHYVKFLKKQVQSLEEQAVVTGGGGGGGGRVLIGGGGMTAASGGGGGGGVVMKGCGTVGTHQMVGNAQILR

IND–RFP (35S::IND–RFP) = target: T3, IND–RFP (35S::IND–RFP) (Arabidopsis thaliana, UniProt O81313 1-198); assay: as above; conditions: partners not purified
T3 construct: INDEHISCENT (IND), bHLH transcription factor, Arabidopsis thaliana; also called INDEHISCENT; source: N. benthamiana leaves, Agrobacterium-infiltrated, in nuclei of leaf cells
T3 sequence (looked up): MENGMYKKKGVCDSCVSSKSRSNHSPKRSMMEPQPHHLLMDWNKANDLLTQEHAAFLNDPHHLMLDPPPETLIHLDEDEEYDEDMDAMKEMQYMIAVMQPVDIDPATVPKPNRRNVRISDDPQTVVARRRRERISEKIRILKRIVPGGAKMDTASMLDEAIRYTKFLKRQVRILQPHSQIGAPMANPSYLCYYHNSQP

B1: 171-bp pPID G-box mutant (CACGTG to TGATGA) (dsDNA)
DNA 1: GCACCCCTATAATATGCCTAGAGGAAATAAGAAGAAAAAATAATGGGGAAAAAGAGAAGCTACTGCTACACTTTCAGGTGATGAACAACGTCTCATGATGATCATATATCTTACGTCATCAAGTCCTCTTTTTCTCTCTTTCACTTTTCTGTTTACCTCTCTCACGCGTTG
DNA 2: CAACGCGTGAGAGAGGTAAACAGAAAAGTGAAAGAGAGAAAAAGAGGACTTGATGACGTAAGATATATGATCATCATGAGACGTTGTTCATCACCTGAAAGTGTAGCAGTAGCTTCTCTTTTTCCCCATTATTTTTTCTTCTTATTTCCTCTAGGCATATTATAGGGGTGC
binding result (6xHis-SPT (SPATULA)): no binding

FRET efficiency (HEC1–RFP (35S::HEC1–RFP)): 7.4%
FRET efficiency (IND–RFP (35S::IND–RFP)): 9.6%
B2: SPT–GFP (35S::SPT::GFP) (natural protein, Arabidopsis thaliana, UniProt Q9FUA4 1-373, looked up)
chain: T1 sequence
notes: SPATULA (SPT), Arabidopsis thaliana; in the self-association row the second copy carried RFP in place of EGFP (35S::SPT–RFP); also called SPT–EGFP; SPT–RFP (the second copy in the homodimer test); source: N. benthamiana leaves, Agrobacterium-infiltrated, in nuclei of leaf cells
FRET efficiency [1]: 5.7%
